According to US9664683B2, “Profiling of signal pathway proteins to determine therapeutic efficacy” (Nestec S.A., priority 2011, dated 2017):

Assays:
[1] = system: PI3K pathway; test: CEER-FNA pathway profiling of breast cancer tumor samples exposed to anti-cancer therapy; assay type: cell-based; conditions: breast cancer tumor samples exposed to AKT inhibitor and/or Lapatinib; FIG. 17
Text: The breast cancer tumor samples were exposed to AKT inhibitor and/or Lapatinib (a tyrosine kinase inhibitor). This example illustrates that cancer cells can adapt to therapeutic pressure due to drug therapy. […] FIG. 17 illustrates CEER-FNA analysis of biomarkers in pathway profiling of breast cancer cell samples after treatment with an AKT inhibitor, Lapatinib (a tyrosine kinase inhibitor) or combination therapy.

[2] = system: HER2 heterodimers and PI3K; test: Proximity based dimer/complex assay in MCF7 cells; assay type: cell-based, human; conditions: response to ligand, FIG. 20
Text: FIG. 1A-C show one embodiment of the foregoing proximity assay for detection of dimerization of receptor tyrosine kinases. […] A first detection antibody 115 is then used to bind to a different portion (e.g., epitope) on HER2. A second detection 120 antibody is thereafter used to bind to the dimerized second receptor tyrosine 1kinase e.g., HER3 125. The first detection antibody comprises one or a plurality of first activation state-independent antibodies specific for one member of the dimer, whereas a second detection antibody or a plurality of second detection antibodies is specific for the other member of the dimer. The first detection antibody is labeled with a facilitating moiety e.g., glucose oxidase (GO) and the second detection antibody is labeled with a first member of a signal amplification pair e.g., horseradish peroxidase (HRP). The facilitating moiety generates an oxidizing agent e.g., hydrogen peroxide, which channels to and reacts with the first member of the signal amplification pair. Thereafter, the plurality of detectable captured analytes are incubated with a second member of the signal amplification pair e.g., tyramide or tyramide biotin to generate an amplified signal, which is then detected. […]

[3] = system: PI3K complex; test: Proximity (CEER) assay detecting PI3K complexes in T47D cells; assay type: cell-based, human; conditions: T47D cells treated with heregulin (HRG), compared to non-treated cells; FIG. 4C
Text: FIG. 4C illustrates the detection of activated PI3K complexes in T47D cells (human ductal breast epithelial tumor cell line) treated with heregulin (HRG), compared to non-treated cells. In some embodiments, the detection of PI3K complexes will also correlate with the detection of activated (e.g., phosphorylated) PI3K. […]

Row | Molecule | levels of phosphorylated pathway proteins after treatment [1] | activation of HER2 heterodimers and PI3K [2] | detection of PI3K complexes [3]
1 | CS(=O)(=O)CCNCc1ccc(-c2ccc3ncnc(Nc4ccc(OCc5cccc(F)c5)c(Cl)c4)c3c2)o1 [Lapatinib, lapatinib] | Higher levels of phosphorylated PI3K, AKT, ERK |  | 
2 | EGF: pathway activating ligand used to stimulate MCF7 cells |  | activation of HER2 heterodimers and PI3K | 
3 | heregulin [HRG] |  | activation of HER2 heterodimers and PI3K | PI3K complexes were detected
